For assay [1], the target named is T1, human furin, wild type (Homo sapiens).
T1 construct: furin, human; also called Furin^WT; source: purified
T1 chain: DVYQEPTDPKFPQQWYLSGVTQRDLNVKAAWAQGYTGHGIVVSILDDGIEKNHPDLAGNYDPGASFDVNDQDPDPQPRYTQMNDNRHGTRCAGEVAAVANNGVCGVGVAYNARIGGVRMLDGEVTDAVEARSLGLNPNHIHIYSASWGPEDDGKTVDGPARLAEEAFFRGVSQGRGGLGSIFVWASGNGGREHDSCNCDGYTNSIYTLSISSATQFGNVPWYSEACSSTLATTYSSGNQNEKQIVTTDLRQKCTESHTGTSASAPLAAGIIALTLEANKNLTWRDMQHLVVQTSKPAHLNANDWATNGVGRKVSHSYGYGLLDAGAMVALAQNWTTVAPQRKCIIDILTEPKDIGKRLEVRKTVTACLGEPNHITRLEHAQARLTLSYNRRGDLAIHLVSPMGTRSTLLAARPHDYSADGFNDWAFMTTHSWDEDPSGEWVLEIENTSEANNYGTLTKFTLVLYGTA
Kind of assay: SEC; analytical gel permeation chromatography, Superdex 200 5/150 GL, 10 mM Hepes, pH 7.5, 100 mM NaCl, 1 mM CaCl2; proteins premixed at equimolar ratio, ~23 μM each; 0.2 ml/min; peak fractions by SDS-PAGE. The settings on record: both partners purified.

Assay [2] concerns the target T2, dec-RVKR-CMK-inhibited human furin (Homo sapiens, covalently inhibited by decanoyl-RVKR-chloromethylketone (dec-RVKR-CMK)).
T2 construct: furin, human; also called furin:RVKR-CMK; source: purified, complex with Nb14 purified by GPC
T2 chain: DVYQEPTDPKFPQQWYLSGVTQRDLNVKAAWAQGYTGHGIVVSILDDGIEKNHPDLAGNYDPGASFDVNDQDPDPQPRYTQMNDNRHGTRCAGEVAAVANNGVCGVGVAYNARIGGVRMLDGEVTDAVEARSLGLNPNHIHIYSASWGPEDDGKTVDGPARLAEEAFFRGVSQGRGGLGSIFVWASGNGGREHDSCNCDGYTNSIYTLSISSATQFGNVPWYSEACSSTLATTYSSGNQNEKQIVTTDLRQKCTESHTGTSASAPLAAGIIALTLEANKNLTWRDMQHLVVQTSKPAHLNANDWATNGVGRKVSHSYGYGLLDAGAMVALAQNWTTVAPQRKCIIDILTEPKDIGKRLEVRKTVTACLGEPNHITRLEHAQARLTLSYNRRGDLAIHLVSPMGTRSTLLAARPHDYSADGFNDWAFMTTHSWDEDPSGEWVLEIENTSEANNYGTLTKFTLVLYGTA
The experiment in a line: crystal structure; furin:RVKR-CMK:Nb14 complex (~9 mg/ml in 10 mM Hepes, pH 7.5, 100 mM NaCl, 2 mM CaCl2) crystallised in 0.1 M sodium acetate, pH 5.6, 16-18% PEG 3350; two copies of the complex in the asymmetric unit. The conditions noted are these: both partners purified.

B1: inhibitory camelid antibody Nb14 (VHH)
VHH: QVQLQESGGGLVQPGGSLTLSCAASGFTFSSYSMYWVRQAPGKGLEWVSSINRVGSNTDYADSVKGRFTISRDNAKNTLYLQMNSLKSEDTALYYCAVGMYAAPPWRGQGTQVTVSS
notes: they are in the deposited structures PDB 5JMO (complex with furin) and PDB 5JMR (free Nb14); also called nanobody Nb14; source: purification in Supplementary Information
Regarding B1, the binding result in assay [1] and in assay [2] was “binds” throughout.

For the origin of these results see publication PMC5037460, “The structure of a furin-antibody complex explains non-competitive inhibition by steric exclusion of substrate conformers” (Scientific Reports, 2016).
